Measurements reported in patent US20020034726A1, “Eosinophil chemotactic factor” (priority 1998, published 2002).
“Also recorded” adds a separate entry of the source.

How the values were obtained:
Assay type in all cases: cell-based
lymphocytes = test: lymphocyte chemotaxis test; conditions: membrane pore size 3 μm; PBS negative control, lymphotactin positive control; FIG. 7
Procedure: (§1) The eosinophil chemotaxis was measured by following the method described in the reference (Lymphokine Cytokine Res. 10, 481-486, 1991; Lymphokine Cytokine Res. 11, 331-338, 1992). Specifically, eosinophils of CD16- were purified from the peripheral blood of normal volunteers by discontinuous density-gradient method using Percoll (Pharmacia, Picataway, N.J.), and the following anti-CD16 immunoglobulin (DAKO. A. S, Glostrup, Denmark) magnetic antibody treatment. Purity of the obtained eosinophils was 97% or higher, and living cells were 95%. Chemotaxis was measured using a bilayered 48-well plate (NeuroProbe, Cabin John, Md.) mediated through a polyvinylpyrrolidone-free membrane (a standard pore size of 5 micron). Chemotactic factors in various concentration, and 0.5×10^6 to 1×10^6 cells/ml human eosinophils were placed on the lower and upper layers, respectively, and incubated under 5% carbon dioxide at 37° C. for 1 to 2 hours. Then the membrane separating two plates was removed, and eosinophils were stained by placing them in DiffQuick stain (Baxter Health Care, McGaw Park, Ill.) to count the eosinophils which were passing through the membrane under a microscope. All assays were conducted three times.
(§2) The similar experiments were conducted in regard to lymphocytes (FIG. 7) and monocytes (FIG. 8). Pore sizes of the membranes are 3 and 8 μm, respectively. […]

monocytes = test: monocyte chemotaxis test; conditions: membrane pore size 8 μm, PBS negative control, MCP-1 positive control, FIG. 8
Procedure: as §1, §2

human eosinophils = test: eosinophil chemotaxis (ECA) test, bilayered 48-well chamber
Procedure: as §1
As a positive control, human C5a (Sigma, Saint Louis, Mo.), IL-5 (Genzyme, Cambridge, Mass.), RANTES (Genzyme), and eotaxin-1 (Seikagaku-Kogyo, Tokyo) were used. […]

neutrophils = test: neutrophil chemotaxis test; conditions: PBS negative control, IL-8 positive control; FIG. 6

B1: ecalectin: eosinophil-specific chemotactic factor, 323 amino acid protein of SEQ ID NO: 2, similar to galectin-9; recombinant from Sf9 insect cells (protein, listed as Homo sapiens)
chain: MAFSSSQAPYLSPAVPFSGTIQGGLQDGLQITVNGTVLSSSGTRFAVNFQTGFSGNDIAFHFNPRFEDGGYVVCNTRQNGSWGPEERKTHMPFQKGMPFDLCFLVQSSDFKVMVNGILFVQYFHRVPFHRVDTISVNGSVQLSYISFQPPGVWPANPAPITQTVIHTVQSAPGQMFSTPAIPPMMYPHPAYPMPFITTILGGLYPSKSILLSGTVLPSAQRFHINLCSGNHIAFHLNPRFDENAVVRNTQIDNSWGSEERSLPRKMPFVRGQSFSVWILCEAHCLKVAVDGQHLFEYYHRLRNLPTINRLEVGGDIQLTHVQT
With B1 the lymphocyte chemotactic activity (lymphocytes) was “no chemotactic activity; also recorded: low or absent; also recorded: does not cause lymphocyte chemotaxis”, the monocyte chemotactic activity (monocytes) was “no chemotactic activity; also recorded: low or absent” and the monocyte chemotactic activity (monocytes; listed as recombinant ecalectin) was “does not cause monocyte chemotaxis”. The “specificity of chemotactic activity” value (human eosinophils; eosinophils versus neutrophils, lymphocytes, monocytes, FIGS. 5-8) was “specific to eosinophils”, the eosinophil chemotactic activity (human eosinophils; recombinant ecalectin purified from Sf9 insect cells, stained eosinophils passing through 5 micron membrane, FIG. 5) was “strong eosinophil chemotactic activity concentration-dependently; also recorded: concentration-dependent eosinophil chemotactic activity” and the neutrophil chemotactic activity (neutrophils) was “no or little neutrophil chemotactic activity; also recorded: low or absent; also recorded: does not cause neutrophil chemotaxis”.
